Assay results reported in paper PMC11150344 (2024).

T1: PIK3CA H1047L peptide on HLA-A*03:01 (human)
T1 peptide: ALHGGWTTK

T2: PIK3CA H1047L peptide on HLA-A*11:01 (human)
T2 peptide: ALHGGWTTK


Tests used:
[1] = target: T1, PIK3CA H1047L peptide on HLA-A*03:01; assay: activation reporter or marker
[2] = target: T2, PIK3CA H1047L peptide on HLA-A*11:01; assay: multimer staining

| binding result [1] | binding result [2] | Binder |
| --- | --- | --- |
| no recognition | recognises | TCR1 (TCR) alpha TRAV13-2*01 TRAJ49*01 CDR3: CAEGETGNQFYF beta TRBV5-1*01 TRBJ2-1*01 CDR3: CASSSGTGGFEQFF |
| no recognition | recognises | TCR5 (TCR) alpha TRAV24*01 TRAJ44*01 CDR3: CASHAGTASKLTF beta TRBV4-3*01 TRBJ2-1*01 CDR3: CASSQDVASSYNEQFF |
| no recognition | recognises | TCR2 (TCR) alpha TRAV12-3*01 TRAJ26*01 CDR3: CATNYGQNFVF beta TRBV29-1*01 TRBJ2-7*01 CDR3: CSVSGTSNYEQYF |
| no recognition | recognises | TCR4 (TCR) alpha TRAV19*01 TRAJ49*01 CDR3: CALSEATGNQFYF beta TRBV29-1*01 TRBJ2-7*01 CDR3: CSVQTLTSSDEQYF |
